In publication PMC9284671 (Structure (London, England : 1993), 2022):

Target: T1, short SARS-CoV-2 peptide (10 residues) of the ITC (SARS-CoV-2)
T1 chain: FKEELDKYFK
Assay: ITC

B1: WS6 (monoclonal antibody, IgG) (antibody, V domains shown)
VH: EVQFQQSGTVLARPGASVKMSCKASGYTFTNYWIHWVKQRPGQGLEYIGGTYPGNGDTTYNQKFKGKAKVTAVTPTSTAYMDLSSLTNEDSAVYYCTRTGSYFDYWGQGTTLTVSS
VL: QIVLTQSPAIMSASPGEKVTISCSATSSVSYIYWYQQRPGSSPKPWIYRTSNLASGVPVRFSGSGSGTSYSLTISNMEAEDAATYYCQQYQSYPPTFGAGTKLELK
B1 gave a Kd of 22 nM.
